Source: the supplement of paper PMC10899765
± gives the standard deviation of the averaged measurements.

Experiments:
Details in all cases: 20 nM; 72 h
MCF10A [1] = experiment: percent viability (nuclei count relative to siNT); higher = more viable cells
Procedure: (§1)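 After 72 h, cells were fixed and stained with Hoechst and anti-fibrillarin, and nucleoli per nucleus were counted with CellProfiler. Values are plate-adjusted percent effect for the one-nucleolus and 5+ nucleoli phenotypes, normalised to siNT (0%) and to the positive controls siNOL11 or siKIF11 (100%), as the mean of biological triplicates. Percent viability is the nuclei count relative to siNT.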

MCF10A [2] = experiment: one-nucleolus phenotype percent effect (relative to siNT 0% and siNOL11 100%); higher = more cells with one nucleolus (ribosome biogenesis inhibition)
Procedure: as §1

MCF10A [3] = experiment: 5+ nucleoli phenotype percent effect (relative to siNT 0% and siKIF11 100%); higher = more cells with five or more nucleoli
Procedure: as §1

Sequence | percent viability (MCF10A [1]) [%] | one-nucleolus phenotype percent effect (MCF10A [2]) [%] | 5+ nucleoli phenotype percent effect (MCF10A [3]) [%]
AGUGAAUGAUGGGUUCUGACC [hsa-miR-1257] | 25.9 | 45.3 | -35.8
UCGAGGACUGGUGGAAGGGCCUU [hsa-miR-3131] | 47.9 | 8.15 | -6.74
GGGAUGGUAGACCGGUGACGUGC [hsa-miR-1193] | 24.3 | 19.2 | -23
UAAUACUGCCUGGUAAUGAUGA [hsa-miR-200b-3p] | 104 | -28.6 | 93.4
ACCCAGGUUCCCUCUGGCCGCA [hsa-miR-4726-3p] | 23.9 | 51.3 | -34.6
CACUGUGUCCUUUCUGCGUAG [hsa-miR-892a] | 57.7 | 31.9 | -27.3
CCAGCCACGGACUGAGAGUGCAU [hsa-miR-4691-3p] | 51.4 | -11.4 | 26.3
AGCAAAAUAAGCAAAUGGAAAA [hsa-miR-1468-3p] | 128 | -19.1 | 29.6
ACCUGGCAGCAGGGAGCGUCGU [hsa-miR-8073] | 33.8 | 28.9 | -35.6
AGGGACUUUUGGGGGCAGAUGUG [hsa-miR-365a-5p] | 56 | -13.1 | 58.6
UACUGCAGACAGUGGCAAUCA [hsa-miR-509-5p] | 48.8 | 7.14 | 5.43
GUAUACACCUGAUAUGUGUAUG [hsa-miR-4789-5p] | 67.5 | -15.8 | 17.3
GCCCAAAGGUGAAUUUUUUGGG [hsa-miR-186-3p] | 176 | -20.2 | 26.4
AACAUUCAUUGCUGUCGGUGGGU [hsa-miR-181b-5p] | 93.5 | 1.83 | 10.9
CCUGGACACCGCUCAGCCGGCCG [hsa-miR-4638-3p] | 106 | -15.8 | 8.98
CCCAUCACCUUUCCGUCUCCCCU [hsa-miR-6884-3p] | 70.3 | -25.5 | 50.9
AAUCCACGCUGAGCUUGGCAUC [hsa-miR-5092] | 22.3 | 14.7 | -4.16
GUUAGGGCCAACAUCUCUUGG [hsa-miR-2909] | 48.3 | -6.14 | 5.52
ACUGGACUUGGAGUCAGAAGAGUGG [hsa-miR-378c] | 22.4 | -8.35 | -4.56
CGGCAACAAGAAACUGCCUGAG [hsa-miR-196a-3p] | 25.1 | 37.8 | -32.7

Sequence | percent viability (MCF10A [1]) [%] | one-nucleolus phenotype percent effect (MCF10A [2]) [%] | 5+ nucleoli phenotype percent effect (MCF10A [3]) [%]
CAAACCACACUGUGGUGUUAGA [hsa-miR-497-3p] | 49.6 | -11.5 | 4.48
UAGUGCAAUAUUGCUUAUAGGGU [hsa-miR-454-3p] | 121 | -20.8 | 54.6
AGGGAAGGAGGCUUGGUCUUAG [hsa-miR-4747-5p] | 29.6 | -5.76 | 11.6
GCGGAAGGCGGAGCGGCGGA [hsa-miR-6125] | 155 | -24.1 | 25.5
UGUCUUCUCUCCUCCCAAACAG [hsa-miR-6740-3p] | 9.9 | 42.8 | -27.6
GACCUGGACAUGUUUGUGCCCAGU [hsa-miR-619] | 128 | -30.8 | 64.8
CCAGUUUUCCCAGGAUU [hsa-miR-4328] | 108 | -38.7 | 62.6
CCCUGCUGCCUUCACCUGCCAG [hsa-miR-6893-3p] | 50.3 | -5.77 | -2.09
UGAGGUAGUAAGUUGUAUUGUU [hsa-miR-98-5p] | 30 | -13 | 44.8
CGCCGCGCGCAUCGGCUCAGC [hsa-miR-6869-3p] | 28.8 | 4.08 | -29.2
AAAACCGUCUAGUUACAGUUGU [hsa-miR-1537] | 73.7 | -11.1 | 13.9
CUGGGAGAGGGUUGUUUACUCC [hsa-miR-30c-1-3p] | 13.1 | 23.4 | -21.9
CUGUGGGCUCAGCUCUGGG [hsa-miR-4265] | 27.1 | 42.3 | -38.1
CACGCUCAUGCACACACCCACA [hsa-miR-574-3p] | 82.7 | -8.15 | -3.95
CUGGACUUUGAUCUUGCCAUAA [hsa-miR-8058] | 58.9 | 32.1 | -11.1
UGGAAGACUAGUGAUUUUGUUGU [hsa-miR-7-5p] | 51.8 | 25.5 | -32.4
AUUGGGGACAUUUUGCAUUCAU [hsa-miR-450a-3p] | 31.6 ± 3.4 | 7.56 ± 4.4 | -17.5 ± 0.61
AGGGAGAAAGCUAGAAGCUGAAG [hsa-miR-6878-5p] | 72.6 | -18.3 | 44.5
CUUUCAGUCGGAUGUUUACAGC [hsa-miR-30e-3p] | 126 | -11.8 | 14.5
UUCUGCUGCCGGCCAAGGC [hsa-miR-6071] | 27.8 | 22.1 | -25.7

Sequence | percent viability (MCF10A [1]) [%] | one-nucleolus phenotype percent effect (MCF10A [2]) [%] | 5+ nucleoli phenotype percent effect (MCF10A [3]) [%]
ACUGUAGUAUGGGCACUUCCAG [hsa-miR-20b-3p] | 74 | 1.32 | -11.6
CAGUUGGGUCUAGGGGUCAGGA [hsa-miR-4259] | 16 | 31.8 | -30.7
CACCCAGAUCUGCGGCCUAAU [hsa-miR-1295b-5p] | 29.9 | 34.4 | -30.7
ACAGUAGAGGGAGGAAUCGCAG [hsa-miR-936] | 61.7 | -2.74 | 14.1
CUAUACGACCUGCUGCCUUUCU [hsa-let-7d-3p] | 84.7 | -15.3 | 18.1
UAAGGUGCAUCUAGUGCAGAUAG [hsa-miR-18a-5p] | 49.1 | 37.7 | -34.5
GAAGUGUGCCGUGGUGUGUCU [hsa-miR-595] | 30.6 | 12.4 | -22
GUCCGCUCGGCGGUGGCCCA [hsa-miR-572] | 96 | -16.2 | -5.13
GACAAUUGUUGAUCUUGGGCCU [hsa-miR-7849-3p] | 74.7 | 8.55 | -19.1
UAAUUGCUUCCAUGUUU [hsa-miR-302f] | 65.5 | 22.1 | -31.2
UGCUUAAGUUGUACCAAGUAU [hsa-miR-4720-3p] | 53.4 | 7.73 | -20.7
UGCAGGACCAAGAUGAGCCCU [hsa-miR-1286] | 35.9 | 5.46 | 1.93
GUGAGUGUGGAUUUGGCGGGGUU [hsa-miR-6790-5p] | 31.8 | 18.2 | -26
UUCAUUUGGUAUAAACCGCGAUU [hsa-miR-579] | 29 | 45.1 | -37.2
CUUGGAUUUUCCUGGGCCUCAG [hsa-miR-5004-3p] | 51.4 | 4.88 | -12
UCCUGCGUAGGAUCUGAGGAGU [hsa-miR-3193] | 58.9 | -18.1 | 10.1
AAUCAUUCACGGACAACACUU [hsa-miR-382-3p] | 97.5 | -25.4 | 36.3
GCCCUCUGUCACCUUGCAGACG [hsa-miR-2276-5p] | 103 | -20.8 | 60.2
AAGCUGCCAGUUGAAGAACUGU [hsa-miR-22-3p] | 35.3 | -3.65 | 8.61
